Key:
Experiment in all cases: cell-based or functional assay
[1] = target: AA-SR-121 (SR-121), IL10RA ECD-CD28 TM-CD3z ICD
[2] = target: AA-SR-106 (SR-106), IL10RA ECD-IL10RA TM-CD3z ICD
[3] = target: AA-SR-107 (SR-107), IL10RB ECD-IL10RB TM-CD3z ICD
[4] = target: AA-SR-122 (SR-122), IL10RB ECD-CD28 TM-CD3z ICD
[5] = target: AA-SR-111 (SR-111), PD1 ECD-PD1 TM-CD3z ICD
[6] = target: AA-SR-126 (SR-126), PD1 ECD-CD28 TM-CD3z ICD
[7] = target: AA-TGFB-007 (TGFB-007), TGF-BR2 ECD-TGFBR2 TM-TGFBR2 truncated ICD (Homo sapiens (Human)) (UniProt P37173)
[8] = target: AA-TGFB-021 (TGFB-021), TGF-BR2 ECD-CD28 TM-CD3z ICD
[9] = target: AA-SR-113 (SR-113), TIGIT ECD-TIGIT TM-CD3z ICD
[10] = target: AA-SR-128 (SR-128), TIGIT ECD-CD28 TM-CD3z ICD
[11] = target: AA-SR-109 (SR-109), GP130 ECD-GP130 TM-CD3z ICD
[12] = target: AA-SR-124 (SR-124), GP130 ECD-CD28 TM-CD3z ICD
Chain of AA-SR-124 (SR-124), GP130 ECD-CD28 TM-CD3z ICD (chain, as listed by the source limits assumed, form in doubt): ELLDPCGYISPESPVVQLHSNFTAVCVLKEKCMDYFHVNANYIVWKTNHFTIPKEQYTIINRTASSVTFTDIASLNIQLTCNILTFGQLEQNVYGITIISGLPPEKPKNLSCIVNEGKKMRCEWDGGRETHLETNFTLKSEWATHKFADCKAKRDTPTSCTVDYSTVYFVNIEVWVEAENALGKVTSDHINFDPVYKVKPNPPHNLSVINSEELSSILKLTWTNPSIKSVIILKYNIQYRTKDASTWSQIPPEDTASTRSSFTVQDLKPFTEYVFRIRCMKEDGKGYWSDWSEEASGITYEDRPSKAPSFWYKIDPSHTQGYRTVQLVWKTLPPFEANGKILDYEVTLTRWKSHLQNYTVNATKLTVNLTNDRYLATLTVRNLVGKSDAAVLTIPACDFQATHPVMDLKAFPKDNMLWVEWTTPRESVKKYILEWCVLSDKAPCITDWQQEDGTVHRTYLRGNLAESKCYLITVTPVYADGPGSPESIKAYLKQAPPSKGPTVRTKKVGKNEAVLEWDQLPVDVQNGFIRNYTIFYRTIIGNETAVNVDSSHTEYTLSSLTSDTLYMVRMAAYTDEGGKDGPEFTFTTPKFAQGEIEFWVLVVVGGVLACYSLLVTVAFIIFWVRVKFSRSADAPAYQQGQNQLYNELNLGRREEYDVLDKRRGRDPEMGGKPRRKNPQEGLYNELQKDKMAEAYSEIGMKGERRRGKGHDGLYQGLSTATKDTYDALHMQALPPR

Chain of AA-SR-122 (SR-122), IL10RB ECD-CD28 TM-CD3z ICD (chain, as listed by the source limits assumed, form in doubt): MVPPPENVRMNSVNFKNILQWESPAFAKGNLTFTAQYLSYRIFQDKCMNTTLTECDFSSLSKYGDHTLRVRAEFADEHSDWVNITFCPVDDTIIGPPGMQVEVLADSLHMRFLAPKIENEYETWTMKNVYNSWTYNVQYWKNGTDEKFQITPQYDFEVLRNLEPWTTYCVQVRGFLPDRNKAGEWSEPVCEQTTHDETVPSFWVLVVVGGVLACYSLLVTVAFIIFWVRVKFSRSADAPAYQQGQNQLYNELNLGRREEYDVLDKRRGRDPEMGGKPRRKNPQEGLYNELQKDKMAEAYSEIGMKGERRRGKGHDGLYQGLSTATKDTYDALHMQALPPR
Chain of AA-SR-128 (SR-128), TIGIT ECD-CD28 TM-CD3z ICD (chain, as listed by the source limits assumed, form in doubt): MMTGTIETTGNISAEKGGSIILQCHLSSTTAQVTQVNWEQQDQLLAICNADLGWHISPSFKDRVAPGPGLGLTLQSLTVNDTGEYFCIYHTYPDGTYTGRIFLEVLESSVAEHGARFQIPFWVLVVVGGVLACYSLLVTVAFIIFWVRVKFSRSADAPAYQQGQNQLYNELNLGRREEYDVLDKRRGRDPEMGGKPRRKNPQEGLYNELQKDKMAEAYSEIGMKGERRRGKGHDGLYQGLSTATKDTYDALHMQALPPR
Chain of AA-SR-111 (SR-111), PD1 ECD-PD1 TM-CD3z ICD (chain, as listed by the source limits assumed, form in doubt): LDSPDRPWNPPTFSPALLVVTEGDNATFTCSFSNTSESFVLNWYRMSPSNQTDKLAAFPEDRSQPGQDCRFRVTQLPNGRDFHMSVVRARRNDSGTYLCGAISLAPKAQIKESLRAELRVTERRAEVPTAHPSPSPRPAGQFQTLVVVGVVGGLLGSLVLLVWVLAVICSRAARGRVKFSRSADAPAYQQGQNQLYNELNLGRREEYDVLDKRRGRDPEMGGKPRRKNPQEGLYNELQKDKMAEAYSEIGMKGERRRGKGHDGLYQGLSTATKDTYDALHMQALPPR
Chain of AA-SR-109 (SR-109), GP130 ECD-GP130 TM-CD3z ICD (chain, as listed by the source limits assumed, form in doubt): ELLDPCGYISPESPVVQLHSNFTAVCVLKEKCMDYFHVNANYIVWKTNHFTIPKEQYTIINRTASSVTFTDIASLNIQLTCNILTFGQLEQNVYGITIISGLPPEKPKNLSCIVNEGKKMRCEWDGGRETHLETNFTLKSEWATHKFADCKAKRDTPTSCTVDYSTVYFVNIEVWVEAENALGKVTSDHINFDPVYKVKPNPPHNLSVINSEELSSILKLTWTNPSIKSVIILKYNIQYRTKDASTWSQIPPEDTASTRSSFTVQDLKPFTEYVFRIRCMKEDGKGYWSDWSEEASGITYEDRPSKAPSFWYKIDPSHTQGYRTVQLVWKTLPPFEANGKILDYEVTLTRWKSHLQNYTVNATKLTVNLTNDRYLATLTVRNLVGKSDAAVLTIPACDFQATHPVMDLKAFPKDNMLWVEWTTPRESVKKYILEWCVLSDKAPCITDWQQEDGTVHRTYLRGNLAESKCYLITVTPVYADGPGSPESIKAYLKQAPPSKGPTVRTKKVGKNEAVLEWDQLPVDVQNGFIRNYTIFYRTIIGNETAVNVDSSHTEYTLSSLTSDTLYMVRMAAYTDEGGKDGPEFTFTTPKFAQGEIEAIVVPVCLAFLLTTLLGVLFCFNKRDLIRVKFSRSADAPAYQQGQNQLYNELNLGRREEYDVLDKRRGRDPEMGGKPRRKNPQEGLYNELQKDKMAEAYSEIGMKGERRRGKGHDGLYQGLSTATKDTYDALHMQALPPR
Chain of AA-SR-106 (SR-106), IL10RA ECD-IL10RA TM-CD3z ICD (chain, as listed by the source limits assumed, form in doubt): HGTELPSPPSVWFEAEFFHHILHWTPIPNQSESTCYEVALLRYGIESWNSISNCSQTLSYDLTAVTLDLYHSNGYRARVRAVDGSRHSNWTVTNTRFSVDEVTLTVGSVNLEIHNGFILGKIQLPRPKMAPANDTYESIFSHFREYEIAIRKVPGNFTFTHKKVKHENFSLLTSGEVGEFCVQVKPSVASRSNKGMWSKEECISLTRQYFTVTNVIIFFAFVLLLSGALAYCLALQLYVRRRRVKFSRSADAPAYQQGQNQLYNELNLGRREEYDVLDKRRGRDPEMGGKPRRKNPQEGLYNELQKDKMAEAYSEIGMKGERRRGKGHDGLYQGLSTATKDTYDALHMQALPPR
Chain of AA-SR-121 (SR-121), IL10RA ECD-CD28 TM-CD3z ICD (chain, as listed by the source limits assumed, form in doubt): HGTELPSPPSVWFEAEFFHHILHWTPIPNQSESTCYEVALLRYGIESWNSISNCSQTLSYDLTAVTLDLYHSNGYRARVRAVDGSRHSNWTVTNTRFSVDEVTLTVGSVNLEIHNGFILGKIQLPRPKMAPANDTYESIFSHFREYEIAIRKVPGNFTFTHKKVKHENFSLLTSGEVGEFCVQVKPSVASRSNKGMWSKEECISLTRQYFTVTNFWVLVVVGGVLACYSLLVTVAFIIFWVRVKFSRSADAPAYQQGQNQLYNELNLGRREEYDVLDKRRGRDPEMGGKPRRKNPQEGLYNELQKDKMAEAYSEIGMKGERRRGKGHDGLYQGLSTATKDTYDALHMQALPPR
Chain of AA-TGFB-007 (TGFB-007), TGF-BR2 ECD-TGFBR2 TM-TGFBR2 truncated ICD (Homo sapiens (Human)) (P37173 23-199, form in doubt): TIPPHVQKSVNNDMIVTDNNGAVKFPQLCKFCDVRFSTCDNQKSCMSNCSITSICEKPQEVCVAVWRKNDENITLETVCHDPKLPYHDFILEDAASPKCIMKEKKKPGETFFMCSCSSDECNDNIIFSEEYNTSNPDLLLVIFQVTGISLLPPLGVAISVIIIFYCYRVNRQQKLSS
Chain of AA-TGFB-021 (TGFB-021), TGF-BR2 ECD-CD28 TM-CD3z ICD (chain, as listed by the source limits assumed, form in doubt): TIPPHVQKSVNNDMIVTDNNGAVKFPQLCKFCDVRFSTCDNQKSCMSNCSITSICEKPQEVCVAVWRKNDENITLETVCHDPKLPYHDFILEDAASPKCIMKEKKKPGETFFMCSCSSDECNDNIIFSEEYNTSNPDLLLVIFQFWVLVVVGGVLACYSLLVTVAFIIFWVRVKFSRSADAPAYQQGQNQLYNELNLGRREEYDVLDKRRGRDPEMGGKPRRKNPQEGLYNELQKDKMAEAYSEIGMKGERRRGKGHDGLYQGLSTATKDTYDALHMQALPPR
Chain of AA-SR-107 (SR-107), IL10RB ECD-IL10RB TM-CD3z ICD (chain, as listed by the source limits assumed, form in doubt): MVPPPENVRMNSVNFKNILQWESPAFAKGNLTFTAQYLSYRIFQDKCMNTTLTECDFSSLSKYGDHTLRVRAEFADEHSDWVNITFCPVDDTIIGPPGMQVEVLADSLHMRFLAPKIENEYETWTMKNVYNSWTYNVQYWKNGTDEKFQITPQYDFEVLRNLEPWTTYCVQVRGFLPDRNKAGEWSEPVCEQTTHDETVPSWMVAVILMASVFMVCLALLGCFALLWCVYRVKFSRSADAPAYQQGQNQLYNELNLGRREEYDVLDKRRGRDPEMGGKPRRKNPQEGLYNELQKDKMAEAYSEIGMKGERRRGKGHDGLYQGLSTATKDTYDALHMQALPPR
Chain of AA-SR-113 (SR-113), TIGIT ECD-TIGIT TM-CD3z ICD (chain, as listed by the source limits assumed, form in doubt): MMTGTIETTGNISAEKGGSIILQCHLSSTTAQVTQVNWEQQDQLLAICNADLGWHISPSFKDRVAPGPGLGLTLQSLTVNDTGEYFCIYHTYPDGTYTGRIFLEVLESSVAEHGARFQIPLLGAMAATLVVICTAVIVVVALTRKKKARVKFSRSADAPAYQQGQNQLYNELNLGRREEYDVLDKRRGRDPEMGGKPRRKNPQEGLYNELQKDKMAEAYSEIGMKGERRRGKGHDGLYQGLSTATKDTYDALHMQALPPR
Chain of AA-SR-126 (SR-126), PD1 ECD-CD28 TM-CD3z ICD (chain, as listed by the source limits assumed, form in doubt): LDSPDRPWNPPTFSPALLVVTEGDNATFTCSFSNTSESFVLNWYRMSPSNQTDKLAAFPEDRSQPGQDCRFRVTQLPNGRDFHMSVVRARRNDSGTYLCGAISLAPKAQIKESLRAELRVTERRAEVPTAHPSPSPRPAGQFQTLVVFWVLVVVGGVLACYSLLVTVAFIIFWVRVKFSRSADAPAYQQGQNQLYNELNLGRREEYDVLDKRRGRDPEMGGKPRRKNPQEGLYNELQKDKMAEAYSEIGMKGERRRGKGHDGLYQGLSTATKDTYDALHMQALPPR

anti-IL-10RA mAb clone 37607 (antibody)
CD69, fold-change of MFI over no stimulation, High (10 ug/mL) [1]: 14.3 fold | CD69, fold-change of MFI over no stimulation, Low (0.4 ug/mL) [1]: 2.2 fold | CD69, fold-change of MFI over no stimulation, Med. (2 ug/mL) [1]: 7.9 fold | GFP, fold-change of MFI over no stimulation, High (10 ug/mL) [1]: 5.4 fold | GFP, fold-change of MFI over no stimulation, Low (0.4 ug/mL) [1]: 1.1 fold | GFP, fold-change of MFI over no stimulation, Med. (2 ug/mL) [1]: 2.9 fold | CD69, fold-change of MFI over no stimulation, High (10 ug/mL) [2]: 56.8 fold | CD69, fold-change of MFI over no stimulation, Low (0.4 ug/mL) [2]: 4.9 fold | CD69, fold-change of MFI over no stimulation, Med. (2 ug/mL) [2]: 29.5 fold | GFP, fold-change of MFI over no stimulation, High (10 ug/mL) [2]: 11.4 fold | GFP, fold-change of MFI over no stimulation, Low (0.4 ug/mL) [2]: 0.8 fold | GFP, fold-change of MFI over no stimulation, Med. (2 ug/mL) [2]: 3.3 fold

anti-IL-10RB mAb clone 90220 (antibody)
CD69, fold-change of MFI over no stimulation, High (10 ug/mL) [3]: 108 fold | CD69, fold-change of MFI over no stimulation, Low (0.4 ug/mL) [3]: 32.2 fold | CD69, fold-change of MFI over no stimulation, Med. (2 ug/mL) [3]: 86.1 fold | GFP, fold-change of MFI over no stimulation, High (10 ug/mL) [3]: 13.8 fold | GFP, fold-change of MFI over no stimulation, Low (0.4 ug/mL) [3]: 2.9 fold | GFP, fold-change of MFI over no stimulation, Med. (2 ug/mL) [3]: 9.3 fold | CD69, fold-change of MFI over no stimulation, High (10 ug/mL) [4]: 115 fold | CD69, fold-change of MFI over no stimulation, Low (0.4 ug/mL) [4]: 70.1 fold | CD69, fold-change of MFI over no stimulation, Med. (2 ug/mL) [4]: 118 fold | GFP, fold-change of MFI over no stimulation, High (10 ug/mL) [4]: 8.2 fold | GFP, fold-change of MFI over no stimulation, Low (0.4 ug/mL) [4]: 6.2 fold | GFP, fold-change of MFI over no stimulation, Med. (2 ug/mL) [4]: 12.5 fold

anti-PD-1 mAb clone EH12.2H7 (antibody)
CD69, fold-change of MFI over no stimulation, High (10 ug/mL) [5]: 37.6 fold | CD69, fold-change of MFI over no stimulation, Low (0.4 ug/mL) [5]: 1.2 fold | CD69, fold-change of MFI over no stimulation, Med. (2 ug/mL) [5]: 1.9 fold | GFP, fold-change of MFI over no stimulation, High (10 ug/mL) [5]: 5.8 fold | GFP, fold-change of MFI over no stimulation, Low (0.4 ug/mL) [5]: 1.3 fold | GFP, fold-change of MFI over no stimulation, Med. (2 ug/mL) [5]: 1.4 fold | CD69, fold-change of MFI over no stimulation, High (10 ug/mL) [6]: 27.3 fold | CD69, fold-change of MFI over no stimulation, Low (0.4 ug/mL) [6]: 1.1 fold | CD69, fold-change of MFI over no stimulation, Med. (2 ug/mL) [6]: 1.7 fold | GFP, fold-change of MFI over no stimulation, High (10 ug/mL) [6]: 5.5 fold | GFP, fold-change of MFI over no stimulation, Low (0.4 ug/mL) [6]: 0.9 fold | GFP, fold-change of MFI over no stimulation, Med. (2 ug/mL) [6]: 1.2 fold

anti-TGF-BR2 mAb clone W17055E (antibody)
CD69, fold-change of MFI over no stimulation, High (10 ug/mL) [7]: 2 fold | CD69, fold-change of MFI over no stimulation, Low (0.4 ug/mL) [7]: 1.3 fold | CD69, fold-change of MFI over no stimulation, Med. (2 ug/mL) [7]: 1.5 fold | GFP, fold-change of MFI over no stimulation, High (10 ug/mL) [7]: 1 fold | GFP, fold-change of MFI over no stimulation, Low (0.4 ug/mL) [7]: 0.8 fold | GFP, fold-change of MFI over no stimulation, Med. (2 ug/mL) [7]: 0.9 fold | CD69, fold-change of MFI over no stimulation, High (10 ug/mL) [8]: 88.2 fold | CD69, fold-change of MFI over no stimulation, Low (0.4 ug/mL) [8]: 2.2 fold | CD69, fold-change of MFI over no stimulation, Med. (2 ug/mL) [8]: 25.2 fold | GFP, fold-change of MFI over no stimulation, High (10 ug/mL) [8]: 5 fold | GFP, fold-change of MFI over no stimulation, Low (0.4 ug/mL) [8]: 0.9 fold | GFP, fold-change of MFI over no stimulation, Med. (2 ug/mL) [8]: 2.9 fold

anti-TIGIT mAb clone A15153G (antibody)
CD69, fold-change of MFI over no stimulation, High (10 ug/mL) [9]: 17.1 fold | CD69, fold-change of MFI over no stimulation, Low (0.4 ug/mL) [9]: 7.2 fold | CD69, fold-change of MFI over no stimulation, Med. (2 ug/mL) [9]: 17.1 fold | GFP, fold-change of MFI over no stimulation, High (10 ug/mL) [9]: 4.6 fold | GFP, fold-change of MFI over no stimulation, Low (0.4 ug/mL) [9]: 0.9 fold | GFP, fold-change of MFI over no stimulation, Med. (2 ug/mL) [9]: 2.2 fold | CD69, fold-change of MFI over no stimulation, High (10 ug/mL) [10]: 3.4 fold | CD69, fold-change of MFI over no stimulation, Low (0.4 ug/mL) [10]: 1.2 fold | CD69, fold-change of MFI over no stimulation, Med. (2 ug/mL) [10]: 2.6 fold | GFP, fold-change of MFI over no stimulation, High (10 ug/mL) [10]: 1.7 fold | GFP, fold-change of MFI over no stimulation, Low (0.4 ug/mL) [10]: 0.6 fold | GFP, fold-change of MFI over no stimulation, Med. (2 ug/mL) [10]: 1.2 fold

anti-gp130 mAb clone 28126 (antibody)
CD69, fold-change of MFI over no stimulation, High (10 ug/mL) [11]: 123 fold | CD69, fold-change of MFI over no stimulation, Low (0.4 ug/mL) [11]: 1.1 fold | CD69, fold-change of MFI over no stimulation, Med. (2 ug/mL) [11]: 22 fold | GFP, fold-change of MFI over no stimulation, High (10 ug/mL) [11]: 6.3 fold | GFP, fold-change of MFI over no stimulation, Low (0.4 ug/mL) [11]: 0.5 fold | GFP, fold-change of MFI over no stimulation, Med. (2 ug/mL) [11]: 2.6 fold | CD69, fold-change of MFI over no stimulation, High (10 ug/mL) [12]: 64.1 fold | CD69, fold-change of MFI over no stimulation, Low (0.4 ug/mL) [12]: 1.8 fold | CD69, fold-change of MFI over no stimulation, Med. (2 ug/mL) [12]: 40.7 fold | GFP, fold-change of MFI over no stimulation, High (10 ug/mL) [12]: 3 fold | GFP, fold-change of MFI over no stimulation, Low (0.4 ug/mL) [12]: 0.5 fold | GFP, fold-change of MFI over no stimulation, Med. (2 ug/mL) [12]: 3.9 fold

— patent publication US20260055162A1
